Patent US20220332804A1 (CSL INNOVATION, published 2022)
Where a chain is given by its changes, count along the chain named.

Experiments:
Test in all cases: SPR, KD relative to WT C2;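 also: biacore SPR at 37 °C, anti-C2 mAbs captured via immobilised goat anti-human IgG, C2 alanine or serine surface mutants as analytes, 1:1 model fitted, double-referenced sensograms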
human C2 N380A = biological target: T1, human C2 N380A (human, UniProt P06681 21-752)
T1 sequence: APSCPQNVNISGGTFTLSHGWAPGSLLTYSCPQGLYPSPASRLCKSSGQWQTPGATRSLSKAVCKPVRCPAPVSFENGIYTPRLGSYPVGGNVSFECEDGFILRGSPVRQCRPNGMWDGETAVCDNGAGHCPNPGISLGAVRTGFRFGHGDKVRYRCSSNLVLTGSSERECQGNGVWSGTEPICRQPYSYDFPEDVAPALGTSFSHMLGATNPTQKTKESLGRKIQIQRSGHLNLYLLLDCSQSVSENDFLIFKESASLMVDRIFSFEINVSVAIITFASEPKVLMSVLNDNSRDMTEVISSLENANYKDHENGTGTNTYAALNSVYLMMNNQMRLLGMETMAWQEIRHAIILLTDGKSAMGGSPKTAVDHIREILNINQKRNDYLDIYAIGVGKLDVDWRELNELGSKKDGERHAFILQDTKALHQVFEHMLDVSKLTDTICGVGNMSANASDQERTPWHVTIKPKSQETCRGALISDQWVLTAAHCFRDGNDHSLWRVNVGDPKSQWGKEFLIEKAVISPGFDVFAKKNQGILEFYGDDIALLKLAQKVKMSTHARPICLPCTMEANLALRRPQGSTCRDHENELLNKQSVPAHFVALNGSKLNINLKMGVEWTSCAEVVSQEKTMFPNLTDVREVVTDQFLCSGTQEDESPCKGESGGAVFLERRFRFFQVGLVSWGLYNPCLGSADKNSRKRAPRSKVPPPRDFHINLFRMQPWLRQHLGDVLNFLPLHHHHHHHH

human C2 Y328A = biological target: T2, human C2 Y328A (human, UniProt P06681 21-752)
T2 sequence: T1 sequence with Y308A, A360N

human C2 D710A = biological target: T3, human C2 D710A (human, UniProt P06681 21-752)
T3 sequence: T1 sequence with A360N, D690A

human C2 G414A = biological target: T4, human C2 G414A (human, UniProt P06681 21-752)
T4 sequence: T1 sequence with A360N, G394A

B1: RF16-226 (antibody, human IgG4 S228P, lambda)
heavy: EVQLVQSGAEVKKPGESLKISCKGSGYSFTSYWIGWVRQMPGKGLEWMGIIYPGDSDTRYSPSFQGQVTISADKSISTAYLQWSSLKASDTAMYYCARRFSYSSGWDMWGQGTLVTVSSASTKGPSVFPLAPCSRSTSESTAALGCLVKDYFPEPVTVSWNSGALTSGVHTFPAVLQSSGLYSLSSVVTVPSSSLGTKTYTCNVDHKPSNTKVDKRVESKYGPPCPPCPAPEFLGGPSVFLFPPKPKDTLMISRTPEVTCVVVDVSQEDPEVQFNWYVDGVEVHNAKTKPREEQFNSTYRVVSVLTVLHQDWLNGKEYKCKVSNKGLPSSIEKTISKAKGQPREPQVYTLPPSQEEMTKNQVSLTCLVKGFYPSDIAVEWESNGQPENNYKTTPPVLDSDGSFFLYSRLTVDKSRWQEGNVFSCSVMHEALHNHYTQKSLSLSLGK
light: SYELTQPPSVSVSPGQTARITCSGDALTSKYVAWYQQKSGLAPLLVIYEDTRRPSGIPAKFSGSSSGSVATLTISGAHGDDEADYYCYSTDASGHQRVFGGGTKLTVLSQPKAAPSVTLFPPSSEELQANKATLVCLISDFYPGAVTVAWKADGSPVKAGVETTKPSKQSNNKYAASSYLSLTPEQWKSHRSYSCQVTHEGSTVEKTVAPTECS
notes: pH-dependent anti-C2 antibody from a phage display library; also called WT
Q: Which Fold diff (human C2 N380A) does the source give for B1 here?
A: The Fold diff was 2 fold.

Q: What about the Fold diff (human C2 Y328A) of the same binder?
A: The Fold diff was 8 fold.

Q: What about the Fold diff (human C2 D710A) of the same binder?
A: Its Fold diff is 10 fold.

Q: And the Fold diff (human C2 G414A)?
A: The Fold diff was 1 fold.
